Reference: paper PMC8037251, “Molecular Characterization of the Extracellular Domain of Human Junctional Adhesion Proteins” (International Journal of Molecular Sciences, 2021)

B1: MBP-fused extracellular domain of human JAM4 (Gly34-Arg286) (domain or fragment, UniProt Q9NSI5 34-286, looked up)
chain: GSGSGNEVIEGPQNARVLKGSQARFNCTVSQGWKLIMWALSDMVVLSVRPMEPIITNDRFTSQRYDQGGNFTSEMIIHNVEPSDSGNIRCSLQNSRLHGSAYLTVQVMGELFIPSVNLVVAENEPCEVTCLPSHWTRLPDISWELGLLVSHSSYYFVPEPSDLQSAVSILALTPQSNGTLTCVATWKSLKARKSATVNLTVIRCPQDTGGGINIPGVLSSLPSLGFSLPTWGKVGLGLAGTMLLTPTCTLTIR
notes: JAM4, human, extracellular domain, Gly34-Arg286 of Q9NSI5; No protease site between MBP and the target in the final design; Decamer by size exclusion; source: E. coli SHuffle T7 Express, purified (amylose resin, size exclusion chromatography); not shown: MBP, N-terminal, kept
B2: MBP-fused extracellular domain of human JAM-A (Gly27-Arg228) (domain or fragment, UniProt Q9Y624 27-228, looked up)
chain: GSVTVHSSEPEVRIPENNPVKLSCAYSGFSSPRVEWKFDQGDTTRLVCYNNKITASYEDRVTFLPTGITFKSVTREDTGTYTCMVSEEGGNSYGEVKVKLIVLVPPSKPTVNIPSSATIGNRAVLTCSEQDGSPPSEYTWFKDGIVMPTNPKSTRAFSNSSYVLNPTTGELVFDPLSASDTGEYSCEARNGYGTPMTSNAVR
notes: JAM-A, human, extracellular domain, Gly27-Arg228 of Q9Y624; No protease site between MBP and the target in the final design (pET28a-MBP, NdeI/XhoI); also called junctional adhesion molecule A; source: E. coli SHuffle T7 Express, purified (amylose resin, size exclusion chromatography); not shown: MBP, N-terminal, kept
B3: MBP-fused extracellular domain of human JAM-B (Gly28-Ser238) (domain or fragment, UniProt P57087 28-238, looked up)
chain: GFSAPKDQQVVTAVEYQEAILACKTPKKTVSSRLEWKKLGRSVSFVYYQQTLQGDFKNRAEMIDFNIRIKNVTRSDAGKYRCEVSAPSEQGQNLEEDTVTLEVLVAPAVPSCEVPSSALSGTVVELRCQDKEGNPAPEYTWFKDGIRLLENPRLGSQSTNSSYTMNTKTGTLQFNTVSKLDTGEYSCEARNSVGYRRCPGKRMQVDDLNIS
notes: JAM-B, human, extracellular domain, Gly28-Ser238 of P57087; No protease site between MBP and the target in the final design; Octamer by size exclusion; also called junctional adhesion molecule B; source: E. coli SHuffle T7 Express, purified (amylose resin, size exclusion chromatography); not shown: MBP, N-terminal, kept

Tests used:
[1] = molecular target: the molecule itself; assay: SEC; ENrich SEC 650 10 x 300 column, PBS as running buffer; peak positions compared with BioRad size exclusion standards; oligomeric state of the MBP fusion
[2] = molecular target: B2; assay: SPR; as the other SPR (OpenSPR, amine-coupled ligand on a Carboxy chip, caprate between injections, 1:1 Langmuir fit) but in the presence of 3 mM CaCl2 (E-CAD experiments); conditions: both partners purified
[3] = molecular target: the molecule itself; assay: as above
[4] = molecular target: B3; assay: SPR; OpenSPR (Nicoya), ligand protein (0.100 mg) amine-coupled to a Carboxy sensor chip; 1 M sodium caprate injected to disrupt preformed interactions and after each analyte; analyte 12.5-100 ug per 200 uL injection, triplicate; global fit, 1:1 Langmuir model, TraceDraw; conditions: both partners purified
[5] = molecular target: B1; assay: as above; conditions: both partners purified
[6] = molecular target: the molecule itself; assay: as above

Kd [2] [nM] | koff [2] [s⁻¹] | kon [2] [M⁻¹ s⁻¹] | Kd [4] [nM] | koff [4] [s⁻¹] | kon [4] [M⁻¹ s⁻¹] | Kd [5] [nM] | koff [5] [s⁻¹] | kon [5] [M⁻¹ s⁻¹] | Binder | stoichiometry N [1] | Kd [3] [nM] | koff [3] [s⁻¹] | kon [3] [M⁻¹ s⁻¹] | Kd [6] [nM] | koff [6] [s⁻¹] | kon [6] [M⁻¹ s⁻¹]
308 | 0.000708 | 2340 |  |  |  |  |  |  | MBP-fused extracellular domain of human epithelial cadherin (Val102-Asp312) (domain or fragment) VIPPISCPENEKGPFPKNLVQIKSNKDKEGKVFYSITGQGADTPPVGVFIIERETGWLKVTEPLDRERIATYTLFSHAVSSNGNAVEDPMEILITVTDQNDNKPEFTQEVFKGSVMEGALPGTSVMEVTATDADDDVNTYNAAIAYTILSQDPELPDKNMFTINRNTGVISVVTTGLDRESFPTYTLVVQAADLQGEGLSTTATAVITVTD | 2 | 197 | 0.000696 | 4650 |  |  | 
 |  |  | 0.203 | 1.76e-05 | 85400 | 0.0925 | 1.96e-07 | 2030 | MBP-fused extracellular domain of human JAM-C (Gly30-Glu236) (domain or fragment, UniProt Q9BX67 30-236, looked up, JAM-C, human, extracellular domain, Gly30-Glu236 of Q9BX67; No protease site between MBP and the target in the final design; Tetramer by size exclusion; also called junctional adhesion molecule C; source: E. coli SHuffle T7 Express, purified (amylose resin, size exclusion chromatography); not shown: MBP, N-terminal, kept) GAVNLKSSNRTPVVQEFESVELSCIITDSQTSDPRIEWKKIQDEQTTYVFFDNKIQGDLAGRAEILGKTSLKIWNVTRRDSALYRCEVVARNDRKEIDEIVIELTVQVKPVTPVCRVPKAVPVGKMATLHCQESEGHPRPHYSWYRNDVPLPTDSRANPRFRNSSFHLNSETGTLVFTAVHKDDSGQYYCIASNDAGSARCEEQEME | 4 |  |  |  | 30.2 | 2.26e-05 | 782
 |  |  |  |  |  |  |  |  | B1 | 10 |  |  |  | 0.139 | 2.04e-07 | 1670
 |  |  | 2.82 | 5.09e-05 | 16500 | 2.33 | 4.09e-06 | 1600 | B2 | 2 |  |  |  | 76.6 | 0.000838 | 13100
 |  |  |  |  |  | 159 | 0.000128 | 1210 | B3 | 8 |  |  |  | 9.97 | 5.36e-05 | 4800
